Source: US20260242419A1, “A CYCLIC PEPTIDE FOR TRAPPING INTERLEUKIN-1 BETA” (Merck Sharp & Dohme LLC, priority 2023, published 2026)
Starred links: 1 amine or outer side, 2 acyl side, 3 side chain; linkers in the order of their positions; H or OH if unused. Non-standard residues stand in square brackets, D forms with d. dProc3CH2Pyrim = (2R,3S)-3-(pyrimidin-5-ylmethyl)pyrrolidine-2-carboxylic acid, O=C([C@H]1[C@@H](Cc2cncnc2)CCN1[*:1])[*:2]; TyrEtNAc = (2S)-3-[4-(2-acetamidoethoxy)phenyl]-2-amino-propanoic acid, CC(=O)NCCOc1ccc(C[C@H](N[*:1])C(=O)[*:2])cc1; dProc3Bn = (2R,3S)-3-benzylpyrrolidine-2-carboxylic acid, O=C([C@H]1[C@@H](Cc2ccccc2)CCN1[*:1])[*:2]; dProc4Bn = (2R,4R)-4-benzylpyrrolidine-2-carboxylic acid, O=C([C@H]1C[C@@H](Cc2ccccc2)CN1[*:1])[*:2]; Trp(βS-Me,4-F) = C[C@@H](c1c[nH]c2cccc(F)c12)[C@H](N)C(=O)O; Bip(4'-COOH) = N[C@@H](Cc1ccc(-c2ccc(C(=O)O)cc2)cc1)C(=O)O; dPro(4R-Bzl(4-F)) = O=C(O)[C@H]1C[C@@H](Cc2ccc(F)cc2)CN1; Ala(pyrimidin-5-yl) = N[C@@H](Cc1cncnc1)C(=O)O; Phe(4-COOH) = N[C@@H](Cc1ccc(C(=O)O)cc1)C(=O)O; Pro(cis-4-F) = O=C(O)[C@@H]1C[C@H](F)CN1; 2Pal = N[C@@H](Cc1ccccn1)C(=O)O; 3Pal = N[C@@H](Cc1cccnc1)C(=O)O; 4Pal = N[C@@H](Cc1ccncc1)C(=O)O; Dab = NCC[C@H](N)C(=O)O; Aib = CC(C)(N)C(=O)O

B1: SEQ ID NO: 79 (peptide)
peptide: cyclo([TyrEtNAc][4Pal][Phe(4-COOH)][Pro(cis-4-F)][Trp(βS-Me,4-F)][Aib]EW[Aib][Ala(pyrimidin-5-yl)]QSG[dProc4Bn])
SMILES: CC(=O)NCCOc1ccc(C[C@@H]2NC(=O)[C@H]3C[C@@H](Cc4ccccc4)CN3C(=O)CNC(=O)[C@H](CO)NC(=O)[C@H](CCC(N)=O)NC(=O)[C@H](Cc3cncnc3)NC(=O)C(C)(C)NC(=O)[C@H](Cc3c[nH]c4ccccc34)NC(=O)[C@H](CCC(=O)O)NC(=O)C(C)(C)NC(=O)[C@H]([C@@H](C)c3c[nH]c4cccc(F)c34)NC(=O)[C@@H]3C[C@H](F)CN3C(=O)[C@H](Cc3ccc(C(=O)O)cc3)NC(=O)[C@H](Cc3ccncc3)NC2=O)cc1
B2: SEQ ID NO: 76 (peptide)
peptide: cyclo([Bip(4'-COOH)][4Pal][Phe(4-COOH)]G[Pro(cis-4-F)][Trp(βS-Me,4-F)][Aib]EW[Aib][4Pal]QRG[dPro(4R-Bzl(4-F))])
SMILES: C[C@@H](c1c[nH]c2cccc(F)c12)[C@@H]1NC(=O)[C@@H]2C[C@H](F)CN2C(=O)CNC(=O)[C@H](Cc2ccc(C(=O)O)cc2)NC(=O)[C@H](Cc2ccncc2)NC(=O)[C@H](Cc2ccc(-c3ccc(C(=O)O)cc3)cc2)NC(=O)[C@H]2C[C@@H](Cc3ccc(F)cc3)CN2C(=O)CNC(=O)[C@H](CCCNC(=N)N)NC(=O)[C@H](CCC(N)=O)NC(=O)[C@H](Cc2ccncc2)NC(=O)C(C)(C)NC(=O)[C@H](Cc2c[nH]c3ccccc23)NC(=O)[C@H](CCC(=O)O)NC(=O)C(C)(C)NC1=O
B3: SEQ ID NO: 77 (peptide)
peptide: cyclo([TyrEtNAc][4Pal][Phe(4-COOH)][Pro(cis-4-F)][Trp(βS-Me,4-F)][Aib]EW[Aib][Ala(pyrimidin-5-yl)]QSG[dProc3Bn])
SMILES: CC(=O)NCCOc1ccc(C[C@@H]2NC(=O)[C@H]3[C@@H](Cc4ccccc4)CCN3C(=O)CNC(=O)[C@H](CO)NC(=O)[C@H](CCC(N)=O)NC(=O)[C@H](Cc3cncnc3)NC(=O)C(C)(C)NC(=O)[C@H](Cc3c[nH]c4ccccc34)NC(=O)[C@H](CCC(=O)O)NC(=O)C(C)(C)NC(=O)[C@H]([C@@H](C)c3c[nH]c4cccc(F)c34)NC(=O)[C@@H]3C[C@H](F)CN3C(=O)[C@H](Cc3ccc(C(=O)O)cc3)NC(=O)[C@H](Cc3ccncc3)NC2=O)cc1
B4: SEQ ID NO: 74 (peptide)
peptide: cyclo([TyrEtNAc][4Pal][Phe(4-COOH)][Pro(cis-4-F)][Trp(βS-Me,4-F)][Aib]EW[Aib]RQ[Dab]G[dPro(4R-Bzl(4-F))])
SMILES: CC(=O)NCCOc1ccc(C[C@@H]2NC(=O)[C@H]3C[C@@H](Cc4ccc(F)cc4)CN3C(=O)CNC(=O)[C@H](CCN)NC(=O)[C@H](CCC(N)=O)NC(=O)[C@H](CCCNC(=N)N)NC(=O)C(C)(C)NC(=O)[C@H](Cc3c[nH]c4ccccc34)NC(=O)[C@H](CCC(=O)O)NC(=O)C(C)(C)NC(=O)[C@H]([C@@H](C)c3c[nH]c4cccc(F)c34)NC(=O)[C@@H]3C[C@H](F)CN3C(=O)[C@H](Cc3ccc(C(=O)O)cc3)NC(=O)[C@H](Cc3ccncc3)NC2=O)cc1
B5: SEQ ID NO: 71 (peptide)
peptide: cyclo([Bip(4'-COOH)][4Pal][Phe(4-COOH)]G[Pro(cis-4-F)][Trp(βS-Me,4-F)][Aib]EW[Aib][Ala(pyrimidin-5-yl)]Q[Dab]G[dProc3CH2Pyrim])
SMILES: C[C@@H](c1c[nH]c2cccc(F)c12)[C@@H]1NC(=O)[C@@H]2C[C@H](F)CN2C(=O)CNC(=O)[C@H](Cc2ccc(C(=O)O)cc2)NC(=O)[C@H](Cc2ccncc2)NC(=O)[C@H](Cc2ccc(-c3ccc(C(=O)O)cc3)cc2)NC(=O)[C@H]2[C@@H](Cc3cncnc3)CCN2C(=O)CNC(=O)[C@H](CCN)NC(=O)[C@H](CCC(N)=O)NC(=O)[C@H](Cc2cncnc2)NC(=O)C(C)(C)NC(=O)[C@H](Cc2c[nH]c3ccccc23)NC(=O)[C@H](CCC(=O)O)NC(=O)C(C)(C)NC1=O
B6: SEQ ID NO: 73 (peptide)
peptide: cyclo([Bip(4'-COOH)][4Pal][Phe(4-COOH)]G[Pro(cis-4-F)][Trp(βS-Me,4-F)][Aib]EW[Aib][2Pal]Q[Dab]G[dPro(4R-Bzl(4-F))])
SMILES: C[C@@H](c1c[nH]c2cccc(F)c12)[C@@H]1NC(=O)[C@@H]2C[C@H](F)CN2C(=O)CNC(=O)[C@H](Cc2ccc(C(=O)O)cc2)NC(=O)[C@H](Cc2ccncc2)NC(=O)[C@H](Cc2ccc(-c3ccc(C(=O)O)cc3)cc2)NC(=O)[C@H]2C[C@@H](Cc3ccc(F)cc3)CN2C(=O)CNC(=O)[C@H](CCN)NC(=O)[C@H](CCC(N)=O)NC(=O)[C@H](Cc2ccccn2)NC(=O)C(C)(C)NC(=O)[C@H](Cc2c[nH]c3ccccc23)NC(=O)[C@H](CCC(=O)O)NC(=O)C(C)(C)NC1=O
B7: SEQ ID NO: 72 (peptide)
peptide: cyclo([Bip(4'-COOH)][4Pal][Phe(4-COOH)]G[Pro(cis-4-F)][Trp(βS-Me,4-F)][Aib]EW[Aib][3Pal]Q[Dab]G[dPro(4R-Bzl(4-F))])
B8: SEQ ID NO: 75 (peptide)
peptide: cyclo([Bip(4'-COOH)][4Pal][Phe(4-COOH)]G[Pro(cis-4-F)][Trp(βS-Me,4-F)][Aib]EW[Aib][Ala(pyrimidin-5-yl)]QRG[dPro(4R-Bzl(4-F))])
SMILES: C[C@@H](c1c[nH]c2cccc(F)c12)[C@@H]1NC(=O)[C@@H]2C[C@H](F)CN2C(=O)CNC(=O)[C@H](Cc2ccc(C(=O)O)cc2)NC(=O)[C@H](Cc2ccncc2)NC(=O)[C@H](Cc2ccc(-c3ccc(C(=O)O)cc3)cc2)NC(=O)[C@H]2C[C@@H](Cc3ccc(F)cc3)CN2C(=O)CNC(=O)[C@H](CCCNC(=N)N)NC(=O)[C@H](CCC(N)=O)NC(=O)[C@H](Cc2cncnc2)NC(=O)C(C)(C)NC(=O)[C@H](Cc2c[nH]c3ccccc23)NC(=O)[C@H](CCC(=O)O)NC(=O)C(C)(C)NC1=O
B9: SEQ ID NO: 78 (peptide)
peptide: cyclo([TyrEtNAc][4Pal][Phe(4-COOH)][Pro(cis-4-F)][Trp(βS-Me,4-F)][Aib]EW[Aib][Ala(pyrimidin-5-yl)]Q[Dab]G[dProc3Bn])
SMILES: CC(=O)NCCOc1ccc(C[C@@H]2NC(=O)[C@H]3[C@@H](Cc4ccccc4)CCN3C(=O)CNC(=O)[C@H](CCN)NC(=O)[C@H](CCC(N)=O)NC(=O)[C@H](Cc3cncnc3)NC(=O)C(C)(C)NC(=O)[C@H](Cc3c[nH]c4ccccc34)NC(=O)[C@H](CCC(=O)O)NC(=O)C(C)(C)NC(=O)[C@H]([C@@H](C)c3c[nH]c4cccc(F)c34)NC(=O)[C@@H]3C[C@H](F)CN3C(=O)[C@H](Cc3ccc(C(=O)O)cc3)NC(=O)[C@H](Cc3ccncc3)NC2=O)cc1

Biological target: Recombinant human IL-1β (BioLegend 579404) (human, UniProt P01584 117-269)
Test: cell-based or functional assay

Binder	MRC5 IC50
B1	0.059 nM
B2	0.059 nM
B3	0.079 nM
B4	0.072 nM
B5	0.058 nM
B6	0.031 nM
B7	0.027 nM
B8	0.056 nM
B9	0.036 nM
